Positions count from the first letter of the chain named.
B1: suPAR_DB04_E09 (scFv, V domains shown)
VH: QVQLVQSGAEVKKPGASVKVSCKASGDTFTDYYIHWVRQAPGQGLEWMGWIDHENGSTSYDQKFQGRVTMTRDTSTSTVYMELSSLRSEDTAVYYCARGYDVDWFVYWGQGTLVTVSS
VL: DIQMTQSPSSLSASVGDRVTITCRARQSVSYMYWYQQKPGKAPKLLIYRTSNLASGVPSRFSGSGSGTDFTLTISSLQPEDFATYYCQQYHSYPPTFGGGTKVEIK
notes: scFv clone from phage display
B2: suPAR_DB04_E11 (scFv, V domains shown)
VH: B1 VH with D27Y, D31N, I34V, S57N, S59I
VL: B1 VL with R24S
notes: scFv clone from phage display
B3: suPAR_DB04_G02 (scFv, V domains shown)
VH: B1 VH with D27Y, D31N, I34M, S57N, S59I
VL: B1 VL with R24S, Q27S, N52S
notes: scFv clone from phage display
B4: suPAR_DB04_F06 (scFv, V domains shown)
VH: B1 VH with D27Y, D31G, I34M, S57N, D61A
VL: B1 VL with R24S, V29I
notes: scFv clone from phage display
B5: suPAR_DB04_F10 (scFv, V domains shown)
VH: B1 VH with D27Y, I34M, E54S, N55G, S57N, S59I, D61A
VL: B1 VL with R24S, Q27S
notes: scFv clone from phage display
B6: suPAR_DB04_F11 (scFv, V domains shown)
VH: B1 VH with D27Y, D31S, Y32H, I34M, N55G, S57N, D61A
VL: B1 VL with R24S, Q27S
notes: scFv clone from phage display
B7: suPAR_DB04_F08 (scFv, V domains shown)
VH: B1 VH with D27G, D31S, I34M, E54S, D61A, K63E
VL: B1 VL with R24S, Q27S
notes: scFv clone from phage display
B8: suPAR_DB04_E12 (scFv, V domains shown)
VH: B1 VH with D27Y, D31T, I34M, H53P, S59I
VL: B1 VL with R24S, R26S
notes: scFv clone from phage display
B9: suPAR_DB04_F05 (scFv, V domains shown)
VH: B1 VH with D27Y, T30S, I34V, N55G, D61A
VL: B1 VL with R24S, V29I
notes: scFv clone from phage display
B10: suPAR_DB04_F07 (scFv, V domains shown)
VH: B1 VH with D27Y, D31G, I34V, S57N, S59I
VL: B1 VL with R24S, Q27S
notes: scFv clone from phage display
B11: suPAR_DB04_F01 (scFv, V domains shown)
VH: B1 VH with D27Y, D31S, I34M, N55G, S57N, S59I, D61A, Y100D
VL: B1 VL with R24S, R26S
notes: scFv clone from phage display
B12: suPAR_DB04_F04 (scFv, V domains shown)
VH: B1 VH with D27Y, D31S, I34M, S57N
VL: B1 VL with R24S, Q27S
notes: scFv clone from phage display
B13: suPAR_DB04_E10 (scFv, V domains shown)
VH: B1 VH with D27Y, T30S, D31S, I34F, H53P, E54N, N55T, S57D, S59I, D61A
VL: B1 VL with R24S, Q27S
notes: scFv clone from phage display
B14: suPAR_DB04_F09 (scFv, V domains shown)
VH: B1 VH with D27Y, D31N, I34F, S57N
VL: B1 VL with R24S, Q27S
notes: scFv clone from phage display
B15: suPAR_DB04_F03 (scFv, V domains shown)
VH: QVQLVQSGAEVKKPGASVKVSCKASGYTIKDYYIHWVRQAPGQGLEWMGWIDPRSGDTNYGKNFQGRVTMTRDTSTSTVYMELSSLRSEDTAVYYCARGYDVDWFVYWGQGTLVTVSS
VL: B1 VL with R24S, Q27S
notes: scFv clone from phage display

target: T1, cynomolgus soluble urokinase plasminogen activator receptor (cynomolgus suPAR) (cynomolgus, UniProt Q9GK78 23-303, limits assumed); test: off-rate screen of scFv clones (kdis), Octet BLI
T1 construct: also called cynomolgus uPAR; cynoPLAUR-His
T1 sequence (Q9GK78 23-303 limits assumed): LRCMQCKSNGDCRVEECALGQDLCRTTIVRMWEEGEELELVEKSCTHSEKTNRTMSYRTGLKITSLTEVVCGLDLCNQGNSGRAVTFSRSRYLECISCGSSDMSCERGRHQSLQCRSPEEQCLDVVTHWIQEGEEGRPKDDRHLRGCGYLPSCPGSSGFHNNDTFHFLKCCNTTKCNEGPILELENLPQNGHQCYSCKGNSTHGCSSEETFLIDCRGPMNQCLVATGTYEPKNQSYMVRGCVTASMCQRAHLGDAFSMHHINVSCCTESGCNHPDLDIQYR

| Binder | koff |
| --- | --- |
| B1 | 0.000446 s⁻¹ |
| B2 | 0.000158 s⁻¹ |
| B3 | 0.000388 s⁻¹ |
| B4 | 0.000195 s⁻¹ |
| B5 | 0.000274 s⁻¹ |
| B6 | 0.000121 s⁻¹ |
| B7 | 4.31e-05 s⁻¹ |
| B8 | 8.15e-05 s⁻¹ |
| B9 | 0.000278 s⁻¹ |
| B10 | 3.33e-05 s⁻¹ |
| B11 | 4.88e-07 s⁻¹ |
| B12 | 0.000174 s⁻¹ |
| B13 | 0.000142 s⁻¹ |
| B14 | 0.000122 s⁻¹ |
| B15 | 0.000863 s⁻¹ |

target: T2, human soluble urokinase plasminogen activator receptor (hsuPAR) (human, UniProt Q03405 23-303, limits assumed); test: off-rate screen of scFv clones (kdis), Octet BLI
T2 construct: also called human suPAR; rhuPAR-His
T2 sequence (Q03405 23-303 limits assumed): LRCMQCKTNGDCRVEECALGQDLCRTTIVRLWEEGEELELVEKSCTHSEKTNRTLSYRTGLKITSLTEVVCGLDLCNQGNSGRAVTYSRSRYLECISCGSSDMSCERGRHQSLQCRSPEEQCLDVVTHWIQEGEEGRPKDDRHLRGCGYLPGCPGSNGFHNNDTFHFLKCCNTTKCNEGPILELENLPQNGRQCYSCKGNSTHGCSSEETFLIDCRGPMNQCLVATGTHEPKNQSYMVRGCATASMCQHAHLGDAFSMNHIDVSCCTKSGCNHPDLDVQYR

| Binder | koff |
| --- | --- |
| B1 | 0.00598 s⁻¹ |
| B2 | 0.00502 s⁻¹ |
| B3 | 0.00185 s⁻¹ |
| B4 | 0.00279 s⁻¹ |
| B5 | 0.00412 s⁻¹ |
| B6 | 0.0051 s⁻¹ |
| B7 | 0.00261 s⁻¹ |
| B8 | 0.00336 s⁻¹ |
| B9 | 0.00405 s⁻¹ |
| B10 | 0.00269 s⁻¹ |
| B11 | 0.00267 s⁻¹ |
| B12 | 0.00394 s⁻¹ |
| B13 | 0.00116 s⁻¹ |
| B14 | 0.00462 s⁻¹ |
| B15 | 0.00375 s⁻¹ |

From US20250215104A1 (WALDEN BIOSCIENCES, published 2025)
